The record followed here is US20210047426A1.

The target in assay [1] is Human CD3ε/δ (soluble recombinant human CD3) (human) (UniProt P07766). The assay is described as follows: BIACORE surface plasmon resonance, recombinant human CD3 directly immobilized, 1:1 binding fit.
In assay [2] the target is Cynomolgus CD3ε/δ (soluble recombinant cynomolgus monkey CD3) (cynomolgus monkey) (UniProt Q95LI5). The assay is described as follows: SPR (BIAcore 3000), antigen immobilized on the chip, DART-A injected, 1:1 Langmuir fit, mean of 3 experiments. (In general: SPR reads the build-up and loss of mass on a sensor chip optically.)
Cynomolgus CD3ε/δ (soluble recombinant cynomolgus monkey CD3) (cynomolgus monkey), sequence (Q95LI5 22-117, stated change not applied, chain 1 of 2): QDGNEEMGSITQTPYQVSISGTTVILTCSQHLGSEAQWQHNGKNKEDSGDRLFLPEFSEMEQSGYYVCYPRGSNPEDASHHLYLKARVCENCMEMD
Cynomolgus CD3ε/δ (soluble recombinant cynomolgus monkey CD3) (cynomolgus monkey), sequence (Q95LI8 22-105, stated change not applied, chain 2 of 2, further chain): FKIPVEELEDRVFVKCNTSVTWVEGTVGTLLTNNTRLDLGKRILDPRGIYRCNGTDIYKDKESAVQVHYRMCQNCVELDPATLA
Assay [3] addresses Human CD3ε/δ (soluble recombinant human CD3) (human) (UniProt P07766). Described as above.
The target in assay [4] is Cynomolgus CD3ε/δ (soluble recombinant cynomolgus monkey CD3) (cynomolgus monkey) (UniProt Q95LI5). The assay is described as follows: BIACORE surface plasmon resonance, recombinant cynomolgus monkey CD3 directly immobilized, 1:1 binding fit.

Human CD3ε/δ (soluble recombinant human CD3) (human), sequence (P07766 23-126, stated change not applied, chain 1 of 2): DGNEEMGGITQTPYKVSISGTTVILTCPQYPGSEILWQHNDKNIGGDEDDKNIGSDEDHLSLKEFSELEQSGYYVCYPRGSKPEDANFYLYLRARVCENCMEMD
Human CD3ε/δ (soluble recombinant human CD3) (human), sequence (P04234 22-105, stated change not applied, chain 2 of 2, further chain): as the sequence (Q95LI8 22-105, stated change not applied, chain 2 of 2, further chain) above, with V5I, K15N, V20I, T32S, N33D, N34I, A64T, N74S, L83V counted along it

B1: Sequence-Optimized CD123 × CD3 Bi-Specific Diabody (DART-A) (bispecific antibody)
chain 1: QAVVTQEPSLTVSPGGTVTLTCRSSTGAVTTSNYANWVQQKPGQAPRGLIGGTNKRAPWTPARFSGSLLGGKAALTITGAQAEDEADYYCALWYSNLWVFGGGTKLTVLGGGGSGGGGEVQLVQSGAELKKPGASVKVSCKASGYTFTDYYMKWVRQAPGQGLEWIGDIIPSNGATFYNQKFKGRVTITVDKSTSTAYMELSSLRSEDTAVYYCARSHLLRASWFAYWGQGTLVTVSSGGCGGGEVAALEKEVAALEKEVAALEKEVAALEK
chain 2: DFVMTQSPDSLAVSLGERVTMSCKSSQSLLNSGNQKNYLTWYQQKPGQPPKLLIYWASTRESGVPDRFSGSGSGTDFTLTISSLQAEDVAVYYCQNDYSYPYTFGQGTKLEIKGGGSGGGGEVQLVESGGGLVQPGGSLRLSCAASGFTFSTYAMNWVRQAPGKGLEWVGRIRSKYNNYATYYADSVKDRFTISRDDSKNSLYLQMNSLKTEDTAVYYCVRHGNFGNSYVSWFAYWGQGTLVTVSSGGCGGGKVAALKEKVAALKEKVAALKEKVAALKE
As for B1, the Kd (commonly the constant that tells how readily two partners part at equilibrium) is 12.3 nM in assay [1], 9.2 nM in assay [2], 9 nM in assay [3] and 9 nM in assay [4]. Also, the off-rate (koff) in assay [2] and in assay [3] was 0.005 s⁻¹ in each case. Moreover, the kon (in general, the second-order rate constant of association) worked out at 550000 M⁻¹ s⁻¹ in assay [2] and 570000 M⁻¹ s⁻¹ in assay [3].
